Target: NAD(P)+-dependent methanol dehydrogenase from Bacillus methanolicus MGA3 (Genbank EIJ77596.1, GI 387585261) (Bacillus methanolicus MGA3) (UniProt P31005)
Experiment: cell-based or functional assay

Question: Which ratio of "act" to methanol dehydrogenase (in vitro activation test with 5 M methanol, 2 mM NAD, 10 uM methanol dehydrogenase 2315A, pH 7.4) (ratio act : methanol dehydrogenase) does the source give for “activator protein from Bacillus methanolicus MGA3 (locus tag MGA3_09170, GI 387591061, Accession EIJ83380) (from UniProt Q8KP10 1-185) (enzyme)” here?
Answer: 10

From patent US20200354692A1
